In general, stoichiometry N refers to a count of units in the complex or per binding partner. In general, Km refers to the concentration of substrate that gives half-maximal velocity. In general, kcat refers to the number of substrate molecules converted per active site and unit of time at saturation.

For data set [1], the target named is Est22 S188A/D287A (bacterial, deep-sea sediment metagenomic library). The data set is described as follows: SEC; gel filtration profiles of wild type and mutants, Superdex 200 16/600 (panel C); column of panel E not given. Background: Size exclusion chromatography separates by hydrodynamic size, large species first.
Data set [2] addresses Est22 S188A (bacterial, deep-sea sediment metagenomic library). Described as above.
Data set [3] addresses Est22 (wild type) (bacterial, deep-sea sediment metagenomic library). Briefly: SEC-MALS; 20 ul of 1 mg/ml Est22 on a wtc030s5 column (Wyatt), 20 mM Tris-HCl, 100 mM NaCl, pH 7.4.
Data set [4] has the same target. The data set is described as follows: SEC; gel filtration profiles of wild type and mutants, Superdex 200 16/600 (panel C); column of panel E not given.
The target in data set [5] is Est22 S188A/H317A (bacterial, deep-sea sediment metagenomic library). Described as above.
Data set [6] deals with the molecule itself. The description is as above.
Substrate in the data set “purified protein”: CC(=O)Oc1ccc([N+](=O)[O-])cc1
Briefly: purified protein. Format: biochemical, uncultured bacterium. Conditions: 100 mM Tris-HCl, pH 7.5, 40 °C.

Regarding Est22 S188A/D287A (enzyme), in data set [1], the stoichiometry N was 2. The molecule Est22 S188A (enzyme) came in with a stoichiometry N in data set [2] of 2. Turning to Est22 (wild type) (enzyme), the stoichiometry N in data set [3] and in data set [4] was 2 throughout. In data set [5], Est22 S188A/H317A (enzyme) yielded a stoichiometry N of 2.

B1: Est22 S170A (enzyme)
chain: MGSSHHHHHHHSSGLVPRGSHMTNKIAEDPRIDPRIKAIFSGMDLGGGGDVESREAMLEAASSEEATAVRDGLRVFLDACDNEEIAPSAGLKIEDYEFTSEPDGNIAKIQYIRPDSTDKLPCVYYIHGGGMQSLSCYYGNYRAWGKIIASNGVAVAMVEFRNALVPSALPEVAPYPAGLNDCVSGVKWVAAHADELGIDASRIIIAGESGGGNLTLAAGLRLKQEGSQDLIQGLYALCPYIAGSWPSEDSPSSTENNGILLDLHNNQGAMGYGIEAYEMRDPLAWPGFATEEDVSGLVPTFISVNECDPLRDEGINFYRLLLRAGVSAKCRQVMGTIHGTEIFPIACPDVSRDTAASIANFCKGG
With B1, the “stoichiometry N” value in data set [6] was determined as 2.

B2: Est22 (uncultured bacterium) (protein)
chain: MTNKIAEDPRIDPRIKAIFSGMDLGGGGDVESREAMLEAASSEEATAVRDGLRVFLDACDNEEIAPSAGLKIEDYEFTSEPDGNIAKIQYIRPDSTDKLPCVYYIHGGGMQSLSCYYGNYRAWGKIIASNGVAVAMVEFRNALVPSALPEVAPYPAGLNDCVSGVKWVASHADELGIDASRIIIAGESGGGNLTLAAGLRLKQEGSQDLIQGLYALCPYIAGSWPSEDSPSSTENNGILLDLHNNQGAMGYGIEAYEMRDPLAWPGFATEEDVSGLVPTFISVNECDPLRDEGINFYRLLLRAGVSAKCRQVMGTIHGTEIFPIACPDVSRDTAASIANFCKGG
notes: full length 1-344 aa, N-terminal 6xHis tag (pET28b), E. coli Rosetta (DE3)
Regarding B2, in “purified protein”, the Km was 489.9 µM and the kcat is 3160 s⁻¹.

Values taken from article PMC4916508, “Structural insights of a hormone sensitive lipase homologue Est22” (Scientific Reports, 2016).
